Measured values from publication PMC7526893.

Target: FLAG-tagged vasodilator-stimulated phosphoprotein (FLAG-VASP), wildtype (human) (UniProt P50552)
Assay: proximity ligation; 293T cells co-expressing p8-HA and FLAG-VASP or FLAG-N-WASP, fixed with 2% PFA; mouse anti-FLAG and rabbit anti-HA, Duolink In Situ Red kit; dots per positive cell counted

Chain of UniProt P50552 (P50552 whole entry): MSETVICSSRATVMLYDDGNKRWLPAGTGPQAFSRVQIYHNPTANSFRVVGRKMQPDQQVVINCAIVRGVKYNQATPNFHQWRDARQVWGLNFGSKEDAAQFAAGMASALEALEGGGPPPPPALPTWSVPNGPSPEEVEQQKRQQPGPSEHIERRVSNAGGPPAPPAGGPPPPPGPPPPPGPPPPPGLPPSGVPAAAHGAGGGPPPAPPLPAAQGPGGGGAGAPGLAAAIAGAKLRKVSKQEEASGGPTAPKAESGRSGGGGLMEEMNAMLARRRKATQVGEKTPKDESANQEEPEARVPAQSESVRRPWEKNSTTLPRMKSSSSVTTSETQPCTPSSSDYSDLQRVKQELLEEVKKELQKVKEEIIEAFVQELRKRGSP

HTLV-1 p8 protein, HA-tagged (p8-HA) (natural protein)
PLA spots per cell (spots per cell): 7
